This note sets out measurements from publication doi:10.1101/2025.11.13.687974.

One may read the stoichiometry N as a count of units in the complex or per binding partner.

The target of test [1] is MBP-tagged chromoshadow domain (CSD) of wild-type HPL-2 (Caenorhabditis elegans). Kind of test: mass photometry.
The target in test [2] is human HP1β chromoshadow domain (CSD) (human). Nature of the test: mass photometry.
In test [3] the target is biotinylated 12-mer H3K9me3 chromatin arrays (histone octamers with H3K9me3 on 12x200-601 DNA) (Xenopus laevis | not stated). Nature of the test: pull-down.

In test [1], “MBP-tagged chromoshadow domain (CSD) of wild-type HPL-2 (domain or fragment)” yielded a percent dimers of 67%, a percent monomers of 32% and a stoichiometry N of 2.
As for “human HP1β chromoshadow domain (CSD) (domain or fragment)”, in test [2], the percent dimers stood at 97% and the stoichiometry N came to 2.

B1: C. elegans HPL-2, wild-type recombinant protein (natural protein)
chain: MSSKSTKRAKIEDPKDNVFMVEKVLDKRTGKAGRDEFLIQWQGFPESDSSWEPRENLQCVEMLDEFEREFSKREKPIRKRHSQKPEPSEDQADPEEDKDEKKETNQNDKFSLEGKQLKCIVGLTKGPGELHFLCKFSDDTARLLPAKEVNSRYPSQVIRYYESKLTIQDPKADEL
In test [3], B1 had a fold enrichment on H3K9me3 arrays relative to unmodified arrays of 3 fold.
